B1: hPAPSS1 (full length, residues 1-623) (Homo sapiens) (protein)
chain: MEIPGSLCKKVKLSNNAQNWGMQRATNVTYQAHHVSRNKRGQVVGTRGGFRGCTVWLTGLSGAGKTTVSMALEEYLVCHGIPCYTLDGDNIRQGLNKNLGFSPEDREENVRRIAEVAKLFADAGLVCITSFISPYTQDRNNARQIHEGASLPFFEVFVDAPLHVCEQRDVKGLYKKARAGEIKGFTGIDSEYEKPEAPELVLKTDSCDVNDCVQQVVELLQERDIVPVDASYEVKELYVPENKLHLAKTDAETLPALKINKVDMQWVQVLAEGWATPLNGFMREREYLQCLHFDCLLDGGVINLSVPIVLTATHEDKERLDGCTAFALMYEGRRVAILRNPEFFEHRKEERCARQWGTTCKNHPYIKMVMEQGDWLIGGDLQVLDRVYWNDGLDQYRLTPTELKQKFKDMNADAVFAFQLRNPVHNGHALLMQDTHKQLLERGYRRPVLLLHPLGGWTKDDDVPLMWRMKQHAAVLEEGVLNPETTVVAIFPSPMMYAGPTEVQWHCRARMVAGANFYIVGRDPAGMPHPETGKDLYEPSHGAKVLTMAPGLITLEIVPFRVAAYNKKKKRMDYYDSEHHEDFEFISGTRMRKLAREGQKPPEGFMAPKAWTVLTEYYKSLEK
notes: full length 1-623 (APSK + ATPS domains); E. coli BL21(DE3) pLys; Ni column and gel filtration
B2: hPAPSS1 (full length, residues 1-623) (Homo sapiens; N426K) (protein)
chain: MEIPGSLCKKVKLSNNAQNWGMQRATNVTYQAHHVSRNKRGQVVGTRGGFRGCTVWLTGLSGAGKTTVSMALEEYLVCHGIPCYTLDGDNIRQGLNKNLGFSPEDREENVRRIAEVAKLFADAGLVCITSFISPYTQDRNNARQIHEGASLPFFEVFVDAPLHVCEQRDVKGLYKKARAGEIKGFTGIDSEYEKPEAPELVLKTDSCDVNDCVQQVVELLQERDIVPVDASYEVKELYVPENKLHLAKTDAETLPALKINKVDMQWVQVLAEGWATPLNGFMREREYLQCLHFDCLLDGGVINLSVPIVLTATHEDKERLDGCTAFALMYEGRRVAILRNPEFFEHRKEERCARQWGTTCKNHPYIKMVMEQGDWLIGGDLQVLDRVYWNDGLDQYRLTPTELKQKFKDMNADAVFAFQLRNPVHKGHALLMQDTHKQLLERGYRRPVLLLHPLGGWTKDDDVPLMWRMKQHAAVLEEGVLNPETTVVAIFPSPMMYAGPTEVQWHCRARMVAGANFYIVGRDPAGMPHPETGKDLYEPSHGAKVLTMAPGLITLEIVPFRVAAYNKKKKRMDYYDSEHHEDFEFISGTRMRKLAREGQKPPEGFMAPKAWTVLTEYYKSLEK
notes: as for B1
B3: COOH-terminal (aa 220-623) ATPS domain of hPAPSS1 (Homo sapiens) (protein)
chain: LQERDIVPVDASYEVKELYVPENKLHLAKTDAETLPALKINKVDMQWVQVLAEGWATPLNGFMREREYLQCLHFDCLLDGGVINLSVPIVLTATHEDKERLDGCTAFALMYEGRRVAILRNPEFFEHRKEERCARQWGTTCKNHPYIKMVMEQGDWLIGGDLQVLDRVYWNDGLDQYRLTPTELKQKFKDMNADAVFAFQLRNPVHNGHALLMQDTHKQLLERGYRRPVLLLHPLGGWTKDDDVPLMWRMKQHAAVLEEGVLNPETTVVAIFPSPMMYAGPTEVQWHCRARMVAGANFYIVGRDPAGMPHPETGKDLYEPSHGAKVLTMAPGLITLEIVPFRVAAYNKKKKRMDYYDSEHHEDFEFISGTRMRKLAREGQKPPEGFMAPKAWTVLTEYYKSLEK
notes: C-terminal ATP sulfurylase domain with linker, residues 220-623, APS kinase domain deleted; recombinant, purified

What was measured:
purified protein [1] = substrate: Nc1ncnc2c1ncn2[C@@H]1O[C@H](COP(=O)(O)OP(=O)(O)OP(=O)(O)O)[C@@H](O)[C@H]1O; assay: purified protein; assay type: biochemical, Homo sapiens; settings: Tris-HCl pH 8.0, MgCl2, 37 °C; for K0.5: half maximal estimate, biphasic response, ATPS + APSK combined activity (two ATP sites)
purified protein [2] = substrate: O=S(=O)(O)O; assay: purified protein; assay type: biochemical, Homo sapiens; settings: fixed ATP, Tris-HCl pH 8.0, MgCl2, 37 °C, labelled compound

| Protein | K0.5 (purified protein [1]) | Km (purified protein [2]; ATPS + APSK combined activity) | Km (purified protein [1]; fixed sulfate, ATP sulfurylase activity) | Km (purified protein [2]; ATP sulfurylase activity) |
| --- | --- | --- | --- | --- |
| B1 | 4.3 mM | 330 µM |  |  |
| B2 | 3.7 mM | 440 µM |  |  |
| B3 |  |  | 2200 µM | 530 µM |

Source: paper PMC11697783, “Structure/function of ATP sulfurylase domain of human 3′-phosphoadenosine 5′-phosphosulfate synthase (hPAPSS)” (Biochemistry and Biophysics Reports, 2024)
